{"source": "paper PMC11168923", "about": "(Nature, 2024)", "molecules": {"B1": {"name": "FLVCR2 (Homo sapiens) (protein)", "chain": "MVNEGPNQEESDDTPVPESALQADPSVSVHPSVSVHPSVSINPSVSVHPSSSAHPSALAQPSGLAHPSSSGPEDLSVIKVSRRRWAVVLVFSCYSMCNSFQWIQYGSINNIFMHFYGVSAFAIDWLSMCYMLTYIPLLLPVAWLLEKFGLRTIALTGSALNCLGAWVKLGSLKPHLFPVTVVGQLICSVAQVFILGMPSRIASVWFGANEVSTACSVAVFGNQLGIAIGFLVPPVLVPNIEDRDELAYHISIMFYIIGGVATLLLILVIIVFKEKPKYPPSRAQSLSYALTSPDASYLGSIARLFKNLNFVLLVITYGLNAGAFYALSTLLNRMVIWHYPGEEVNAGRIGLTIVIAGMLGAVISGIWLDRSKTYKETTLVVYIMTLVGMVVYTFTLNLGHLWVVFITAGTMGFFMTGYLPLGFEFAVELTYPESEGISSGLLNISAQVFGIIFTISQGQIIDNYGTKPGNIFLCVFLTLGAALTAFIKADLRRQKANKETLENKLQEEEEESNTSKVPTAVSEDHL", "notes": "full length; transport: pcDNA3.1 in HEK293 with CHKA or ETNK1; structures and fluorescence: C-terminal FLAG tag, Flp-In T-REx293, LMNG"}, "B2": {"name": "FLVCR1 (FLVCR1a) (Homo sapiens) (protein)", "chain": "MARPDDEEGAAVAPGHPLAKGYLPLPRGAPVGKESVELQNGPKAGTFPVNGAPRDSLAAASGVLGGPQTPLAPEEETQARLLPAGAGAETPGAESSPLPLTALSPRRFVVLLIFSLYSLVNAFQWIQYSIISNVFEGFYGVTLLHIDWLSMVYMLAYVPLIFPATWLLDTRGLRLTALLGSGLNCLGAWIKCGSVQQHLFWVTMLGQCLCSVAQVFILGLPSRIASVWFGPKEVSTACATAVLGNQLGTAVGFLLPPVLVPNTQNDTNLLACNISTMFYGTSAVATLLFILTAIAFKEKPRYPPSQAQAALQDSPPEEYSYKKSIRNLFKNIPFVLLLITYGIMTGAFYSVSTLLNQMILTYYEGEEVNAGRIGLTLVVAGMVGSILCGLWLDYTKTYKQTTLIVYILSFIGMVIFTFTLDLRYIIIVFVTGGVLGFFMTGYLPLGFEFAVEITYPESEGTSSGLLNASAQIFGILFTLAQGKLTSDYGPKAGNIFLCVWMFIGIILTALIKSDLRRHNINIGITNVDVKAIPADSPTDQEPKTVMLSKQSESAI", "notes": "as for B1"}}, "key": {"FLVCR2": {"target": "T1, FLVCR2 (Homo sapiens, UniProt Q9UPI3)", "T1 construct": "full length; transport: pcDNA3.1 in HEK293 with CHKA or ETNK1; structures and fluorescence: C-terminal FLAG tag, Flp-In T-REx293, LMNG", "T1 sequence (Q9UPI3 1-526)": "B1 chain", "experiment": "intrinsic tryptophan fluorescence shift (F350/F330)", "format": "binding", "conditions": "0.5 µM protein; LMNG; pH 7.4; room temperature"}, "FLVCR1 (FLVCR1a)": {"target": "T2, FLVCR1 (FLVCR1a) (Homo sapiens, UniProt Q9Y5Y0)", "T2 construct": "full length; transport: pcDNA3.1 in HEK293 with CHKA or ETNK1; structures and fluorescence: C-terminal FLAG tag, Flp-In T-REx293, LMNG", "T2 sequence (Q9Y5Y0 1-555)": "B2 chain", "experiment": "intrinsic tryptophan fluorescence shift (F350/F330)", "format": "binding", "conditions": "0.5 µM protein; LMNG; pH 7.4; room temperature"}, "[1]": {"substrate": "C[N+](C)(C)CCO", "experiment": "radioligand uptake dose curve in HEK293 cells", "format": "cell-based, Homo sapiens", "conditions": "CHKA co-expressed, DMEM, 37 °C, 1 h, labelled compound"}, "[2]": {"substrate": "NCCO", "experiment": "radioligand uptake dose curve in HEK293 cells", "format": "cell-based, Homo sapiens", "conditions": "ETNK1 co-expressed, DMEM, 37 °C, 1 h, labelled compound"}}}
{"molecule": "C[N+](C)(C)CCO", "note": "[choline]", "values": [{"measurement": "shift of F350/F330", "setting": "FLVCR2", "value": "Shifts of tryptophan fluorescence of FLVCR1 and FLVCR2 in the presence of choline or betaine"}, {"measurement": "shift of F350/F330", "setting": "FLVCR1 (FLVCR1a)", "value": "Shifts of tryptophan fluorescence of FLVCR1 and FLVCR2 in the presence of choline or betaine"}]}
{"molecule": "B1", "values": [{"measurement": "Km", "setting": "[1]", "value": "64.0 ± 21.0", "unit": "µM"}, {"measurement": "Km", "setting": "[2]", "value": "41.5 ± 32.0", "unit": "µM"}]}
{"molecule": "B2", "values": [{"measurement": "Km", "setting": "[1]", "value": "47.4 ± 9.8", "unit": "µM"}, {"measurement": "Km", "setting": "[2]", "value": "8 ± 1.5", "unit": "µM"}]}
